# Measured values as given in patent US20260258115A1.
# B1: ADI-41147 (antibody, V domains shown)
# VH: EVQLVESGGGLVKPGGSLRLSCAASGFTLSGYYMSWVRQAPGKGLEWISYISGGSTYTNYADSVNGRFTISRDNAKNSLYLQMDSLRAEDTAVYYCARLEYGDYGPYYLGLWGRGTLVTVSS
# VL: QSVLTQPPSVSGAPGQRVTISCTGTSSNIGAGYDVHWYQKLPGTAPKLLIYANNNRPSGVPDRFSGSKSGTSASLAITGLQAEDEADYYCQSYDTSLSAHYVFGTGTKLTVL
# B2: ADI-36680 (antibody, V domains shown)
# VH: QVTLKESGAELRKPGESLKISCKASGYRFTNYWIGWVRQMPGKGLEWMGVIYPGDSDTKYSPSFQGQVTMSADKSINTAYLQWSSLKASDTAIYYCVSLFGDYDYGALDYWGQGTLVTVSS
# VL: ETTLTQSPATLSMSPGERATLSCRASQSVGRNLAWYQQKPGQAPRLLIYGASIRATGILARFSGSGSGTEYTLTISSLQPEDFAVYYCQQYHDWPSFTFGPGTKVDIK
# B3: ADI-36679 (antibody, V domains shown)
# VH: QVQLVQSGAEVKKPGESLKISCKGSGYSFRSYWIAWVRQMPGKGLEWMGTIFPGDSDVTYSPSFQGQVTISVDKSTSTAYLQWGSLKASDTAIYYCARRYDYIDFWGQGTLVTVSS
# VL: DIQMTQSPSSLSASVGDRVTITCQASQDIINHLNWYQQKPGKAPKLLIYDASNLHPGVPSRFSGSGSGTYFTFTISSLQPDDFATYYCQQYDFLAHITFGPGTKVDIK
# B4: ADI-41180 (antibody, V domains shown)
# VH: EVQLVQSGGGLVKPGGSLRLSCAASGFTFIDYYMSWIRQAPGKGLEWVSSISGGSTYTTYADSVKGRFTISRDNGKNSLYLQMDSLRAEDTAVYYCARLGGYSYYMDVWGKGTTVTVSS
# VL: QPVLTQPPSVSGAPGQRVTISCTGSSSNIGAGYDVHWYQHLPGAAPKLLIYDNTNRPSGIPDRFSGSKSGTSASLAITGLQAEDEADYYCQSYDSSLDWVFGGGTKVTVL
# B5: ADI-36681 (antibody, V domains shown)
# VH: EVQLVESGAEVKKPGESLKISCKASGYSFTRYWIGWVRQMPGKGLEWMGIIFPGDSDTRYCPSFEGQVTISADRSINTAYLQWSSLKASDSAMYYCVTLYTDYDYGAPDHWGQGTLVTVSS
# VL: DIVLTQSPATLSVSPGERATLSCRASQSLSGDLAWYQQKPGQAPRLLIYATSTRATGIPARFSGSGSGAEFTLTISSLQSEDFAVYYCQQYYDWPLLTFGPGTKVEIK
# B6: ADI-41165 (antibody, V domains shown)
# VH: EVQLVETGAEVKKPGESLKISCKGSGYSFTSYWIGWVRQMPGKGLEWMGIIYPGDSDTRYSPSFQGQVTISADKSISTAYLQWSSLKASDTAMYYCARRYDYIDIWGQGTMVTVSS
# VL: DIRVTQSPSSLSASVGDRVTITCQASQDISNYLNWYQQKPGKAPKLLIYDASNLETGVPSRFSGSGSGTDFTFTISSLQPEDIATYYCQQYDNLAHITFGPGTKVEIK
# B7: ADI-41168 (antibody, V domains shown)
# VH: EVQLVETGGGVVQPGRSLRLSCAASGFTFSSYGMHWVRQAPGKGLEWVAVISYDGSNKYYADSVKGRFTISRDNSKNTLYLQMNSLRTEDTAVYYCAKGGGYYYYYMDVWGKGTTVTVSS
# VL: QPVLTQPASVSGSPGQSITISCTGTSSDVGGYNYVSWYQQHPGKAPKLMIYGVNNRPSGVSNRFSGSKSGNTASLTISGLQGEDEADYYCNSYRSGITVVFGGGTKLTVL
# B8: ADI-41157 (antibody, V domains shown)
# VH: EVQLVESGPGLVKPSETLSLTCTVSGGSISTYYWSWIRQPPGKGLEWIGYIYYTGSTNYNPSLKSRVTISLDTSKNQFSLKLSSVSAADTAFYYCARSPPVPGTRSWFDPWGQGTLVTVSS
# VL: SPGLTQPQSAFGTPGQRVTISCFGSSSNIGRNHIYWYQQVPGTAPKLLIYRNNQRPSGVPDRFFGSKFGTSASLAISGVRSEDEADYFCAAWDDSLSGPVFGGGTKLTVL
# Target: RSV prefusion F (preF), DS-Cav1 (Respiratory Syncytial Virus)
# Assay: BLI, IgG on anti-human IgG sensor, 100 nM antigen
row,Binder,Kd
1,B1,0.467 nM
2,B2,0.719 nM
3,B3,0.878 nM
4,B4,0.47 nM
5,B5,1.2 nM
6,B6,2.4 nM
7,B7,133 nM
8,B8,0.507 nM

# Target: Respiratory Syncytial Virus fusion glycoprotein (RSV F) on RSV-A2 virus (Respiratory Syncytial Virus subtype A (RSV-A2))
# Assay: cell-based or functional assay
row,Binder,Neutralization IC50 (RSV subtype A)
1,B1,0.06 µg/mL
2,B2,0.01 µg/mL
3,B3,0.01 µg/mL
4,B4,0.07 µg/mL
5,B5,0.01 µg/mL
6,B6,> 25 µg/mL
7,B7,> 25 µg/mL
8,B8,0.22 µg/mL
